The chains are these.
B1: ATP synthase ε-subunit from Mycobacterium smegmatis (natural protein, UniProt A0R1Z9 1-121, looked up)
chain: MADLNVEIVAVERELWSGPATFVFTRTTAGEIGILPRHIPLVAQLVDDAMVRVEREGEDDLRIAVDGGFLSVTEETVRILVENAQFESEIDADAAKEDAASDDERTAAWGRARLRALGQID
notes: ATP synthase subunit ε, M. smegmatis mc2 155, encoded in the entire atp operon; modelled in substate S1a (PDB 7NJK): 3-120; One copy in the enzyme
B3: ATP synthase bδ-subunit from Mycobacterium smegmatis (natural protein, UniProt A0R203 1-445, looked up)
chain: MSIFIGQLIGFAVIAFIIVKWVVPPVRTLMRNQQEAVRAALAESAEAAKKLADADAMHAKALADAKAESEKVTEEAKQDSERIAAQLSEQAGSEAERIKAQGAQQIQLMRQQLIRQLRTGLGAEAVNKAAEIVRAHVADPQAQSATVDRFLSELEQMAPSSVVIDTAATSRLRAASRQSLAALVEKFDSVAGGLDADGLTNLADELASVAKLLLSETALNKHLAEPTDDSAPKVRLLERLLSDKVSATTLDLLRTAVSNRWSTESNLIDAVEHTARLALLKRAEIAGEVDEVEEQLFRFGRVLDAEPRLSALLSDYTTPAEGRVALLDKALTGRPGVNQTAAALLSQTVGLLRGERADEAVIDLAELAVSRRGEVVAHVSAAAELSDAQRTRLTEVLSRIYGRPVSVQLHVDPELLGGLSITVGDEVIDGSIASRLAAAQTGLPD
notes: ATP synthase subunit bδ (natural fusion of a b-domain, a linking domain and a δ-domain), M. smegmatis mc2 155, encoded in the entire atp operon; modelled in substate S1a (PDB 7NJK): 1-162, 169-444; One copy in the enzyme; part of the peripheral stalk; also called fused bδ-subunit
B5: ATP synthase γ-subunit from Mycobacterium smegmatis (natural protein, UniProt A0R201 1-307, looked up)
chain: MAATLRELRGRIRSAGSIKKITKAQELIATSRIAKAQARVEAARPYAAEITNMLTELAGASALDHPLLVERKQPKRAGVLVVSSDRGLCGAYNANVLRRAEELFSLLRDEGKDPVLYVVGRKALGYFSFRQRTVVESWTGFSERPTYENAREIADTLVNAFMAGADDEGDDAGADGILGVDELHIVFTEFRSMLSQTAVARRAAPMEVEYVGEVETGPRTLYSFEPDPETLFDALLPRYIATRVYAALLEAAASESASRRRAMKSATDNADDLIKALTLAANRERQAQITQEISEIVGGANALAGSK
notes: ATP synthase subunit γ, M. smegmatis mc2 155, encoded in the entire atp operon; modelled in substate S1a (PDB 7NJK): 3-213, 220-304; One copy in the enzyme
B7: ATP synthase a-subunit from Mycobacterium smegmatis (natural protein, UniProt A0R206 1-252, looked up)
chain: MLAAEEGGAAIHVGHHTLVFELFGMTFNGDTILATAVTAVIVIALAFYLRAKVTSTGVPSGVQLFWEALTIQMRQQIEGSIGMKIAPFVLPLSVTIFVFILISNWLAVLPLQYGGADGAAAELYKAPASDINFVLALALFVFVCYHAAGIWRRGIVGHPIKVVKGHVAFLAPINIVEELAKPISLALRLFGNIFAGGILVALIAMFPWYIQWFPNAVWKTFDLFVGLIQAFIFSLLTILYFSQSMELDHEDH
notes: ATP synthase subunit a, M. smegmatis mc2 155, encoded in the entire atp operon; modelled in substate S1a (PDB 7NJK): 10-247; One copy in the enzyme

Holding throughout (experiment): cryo-EM structure; single particles of the ATP synthase purified in detergent and inhibited with bedaquiline (25 μM); 63 maps and 27 models, resolutions 2.11 to 4.15 Å; states S1 to S3 and substates
The target in series [1] is B5. The settings on record: both partners purified.
Series [2] has as its target B1. The following applies: both partners purified.
The target in series [3] is B7. The following applies: both partners purified.
Series [4] deals with the molecule itself.
For series [5], the target named is T1, ATP synthase α-subunit from Mycobacterium smegmatis (Mycobacterium smegmatis, UniProt A0R202 1-548).
T1 construct: ATP synthase subunit α, M. smegmatis mc2 155, encoded in the entire atp operon; modelled in substate S1a (PDB 7NJK): αE 5-21, 29-406, 411-521; αTP 5-21, 29-406, 411-521; αDP 6-406, 413-521, 527-545; Three copies in the enzyme (α3β3); also called αE; αTP
The following applies: both partners purified.

Series [6] has as its target B3. The following applies: both partners purified.

The values that follow come from PMC8617483, “Structure of the ATP synthase from Mycobacterium smegmatis provides targets for treating tuberculosis” (Proceedings of the National Academy of Sciences of the …, 2021).

Usually stoichiometry N stands for a count of units in the complex or per binding partner.

T1 sequence (A0R202 whole entry): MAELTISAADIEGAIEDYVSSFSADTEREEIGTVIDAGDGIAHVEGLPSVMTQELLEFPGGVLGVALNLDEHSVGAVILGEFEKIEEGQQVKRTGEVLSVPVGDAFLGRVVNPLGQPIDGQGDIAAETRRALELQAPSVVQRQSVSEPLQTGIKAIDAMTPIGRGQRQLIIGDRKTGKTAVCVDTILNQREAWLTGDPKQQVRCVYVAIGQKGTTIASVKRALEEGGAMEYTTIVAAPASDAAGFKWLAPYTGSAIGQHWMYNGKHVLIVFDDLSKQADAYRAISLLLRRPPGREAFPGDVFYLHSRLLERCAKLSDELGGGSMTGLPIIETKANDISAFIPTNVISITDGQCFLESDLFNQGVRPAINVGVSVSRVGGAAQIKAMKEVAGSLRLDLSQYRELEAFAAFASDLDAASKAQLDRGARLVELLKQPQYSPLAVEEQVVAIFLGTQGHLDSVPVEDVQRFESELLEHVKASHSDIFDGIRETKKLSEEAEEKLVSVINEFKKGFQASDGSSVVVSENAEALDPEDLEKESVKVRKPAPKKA

As to B1, the binding result in series [1] is recorded as “binds”.

B2: ATP synthase c-subunit from Mycobacterium smegmatis (natural protein, UniProt A0R205 1-86, looked up)
chain: MDLDPNAIITAGALIGGGLIMGGGAIGAGIGDGIAGNALISGIARQPEAQGRLFTPFFITVGLVEAAYFINLAFMALFVFATPGLQ
notes: ATP synthase subunit c, M. smegmatis mc2 155, encoded in the entire atp operon; modelled in substate S1a (PDB 7NJK): 3-86 in all nine copies; Nine copies form the c9-ring of the rotor; in the rows with a and ε the subunit stands in that ring; also called c9-ring; c-ring
Turning to B2, the binding result in series [2] and in series [3] was “binds” throughout. Besides, in series [4], the “stoichiometry N” value amounted to 9.
For B3, the binding result in series [5] was “binds”.

B4: ATP synthase β-subunit from Mycobacterium smegmatis (natural protein, UniProt A0R200 1-475, looked up)
chain: MTATAEKTAGRVVRITGPVVDVEFPRGSVPELFNALHAEITFGALAKTLTLEVAQHLGDSLVRCISMQPTDGLVRGVEVTDTGASISVPVGDGVKGHVFNALGDCLDDPGYGKDFEHWSIHRKPPAFSDLEPRTEMLETGLKVVDLLTPYVRGGKIALFGGAGVGKTVLIQEMINRIARNFGGTSVFAGVGERTREGNDLWVELADANVLKDTALVFGQMDEPPGTRMRVALSALTMAEFFRDEQGQDVLLFIDNIFRFTQAGSEVSTLLGRMPSAVGYQPTLADEMGELQERITSTRGRSITSMQAVYVPADDYTDPAPATTFAHLDATTELSRAVFSKGIFPAVDPLASSSTILDPAIVGDEHYRVAQEVIRILQRYKDLQDIIAILGIDELSEEDKQLVNRARRIERFLSQNMMAAEQFTGQPGSTVPLKETIEAFDKLTKGEFDHLPEQAFFLIGGLDDLAKKAESLGAKL
notes: ATP synthase subunit β, M. smegmatis mc2 155, encoded in the entire atp operon; modelled in substate S1a (PDB 7NJK): βE 8-471; βTP 7-475; βDP 8-475; Three copies in the enzyme (α3β3); also called βE; βTP
With B4, the binding result in series [5] is “binds”.
On the same count and under the same terms, in the case of B5 it was “binds”.

B6: ATP synthase b′-subunit from Mycobacterium smegmatis with a C-terminal His10-tag (natural protein, UniProt A0R204 1-170, looked up)
chain: MGEFSATILAASQAAEEGGGGSNFLIPNGTFFAVLIIFLIVLGVISKWVVPPISKVLAEREAMLAKTAADNRKSAEQVAAAQADYEKEMAEARAQASALRDEARAAGRSVVDEKRAQASGEVAQTLTQADQQLSAQGDQVRSGLESSVDGLSAKLASRILGVDVNSGGTQ
notes: ATP synthase subunit b′, M. smegmatis mc2 155, encoded in the entire atp operon; modelled in substate S1a (PDB 7NJK): 22-166; residues 1 to 21 had no density but are present in the assembled enzyme; One copy in the enzyme; part of the peripheral stalk; No removal of the tag is told; also called b-subunit (in some sentences)
On to B6, for which the binding result in series [5], in series [1], in series [3] and in series [6] was “binds” in each case.
Consider B7, for which the binding result in series [6] was “binds”.
